Test results reported in US11833164B2, “Methods of treating Fabry disease in patients having a mutation in the GLA gene” (Amicus Therapeutics, Inc., priority 2019, dated 2023).

System: mutant form of α-Gal A expressed in HEK-293 cells
Experiment: HEK assay (GLP HEK / Migalastat Amenability Assay): α-Gal A activity in lysates of transiently transfected HEK-293 cells incubated with or without 10 μM migalastat
Type: cell-based, human
Details: for Absolute increase (% WT) / Relative increase: 10 μM migalastat versus baseline; for Baseline α-Gal A activity (% WT): absence of migalastat; for Baseline α-Gal A activity (% WT) / 10 μM migalastat α-Gal A activity (% WT): percentage of baseline wild-type α-Gal A activity; for Baseline α-Gal A activity (% WT) / Baseline α-Gal A activity / 10 μM migalastat α-Gal A activity / 10 μM migalastat α-Gal A activity (% WT): mean ± SEM; for Baseline α-Gal A activity / 10 μM migalastat α-Gal A activity: lysates of HEK-293 cells transiently transfected with the mutant form; for Baseline α-Gal A activity: incubated 5 days in absence of migalastat; for 10 μM migalastat α-Gal A activity: incubated 5 days with 10 μM migalastat; for 10 μM migalastat α-Gal A activity (% WT): with 10 μM migalastat, 5 days
Summary of the method: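 HEK-293 cells transiently transfected with mutant α-Gal A and incubated with or without 10 μM migalastat; lysate activity given as nmol free 4-MU released per mg protein per hour. Values are mean±SEM.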

Row | Molecule | Absolute increase (% WT) | Relative increase | Baseline α-Gal A activity (% WT) | Baseline α-Gal A activity | 10 μM migalastat α-Gal A activity | 10 μM migalastat α-Gal A activity (% WT)
1 | K308R (protein) MQLRNPELHLGCALALRFLALVSWDIPGARALDNGLARTPTMGWLHWERFMCNLDCQEEPDSCISEKLFMEMAELMVSEGWKDAGYEYLCIDDCWMAPQRDSEGRLQADPQRFPHGIRQLANYVHSKGLKLGIYADVGNKTCAGFPGSFGYYDIDAQTFADWGVDLLKFDGCYCDSLENLADGYKHMSLALNRTGRSIVYSCEWPLYMWPFQKPNYTEIRQYCNHWRNFADIDDSWKSIKSILDWTSFNQERIVDVAGPGGWNDPDMLVIGNFGLSWNQQVTQMALWAIMAAPLFMSNDLRHISPQARALLQDKDVIAINQDPLGKQGYQLRQGDNFEVWERPLSGLAWAVAMINRQEIGGPRSYTIAVASLGKGVACNPACFITQLLPVKRKLGFYEWTSRLRSHINPTGTVLLQLENTMQMSLKDLL | 20.3 % WT | 1.3 | 68.9 ± 4.3 % WT | 27103 ± 1767 nmol/mg/h | 35824 ± 2438 nmol/mg/h | 89.1 ± 4.5 % WT
2 | A309D (protein) MQLRNPELHLGCALALRFLALVSWDIPGARALDNGLARTPTMGWLHWERFMCNLDCQEEPDSCISEKLFMEMAELMVSEGWKDAGYEYLCIDDCWMAPQRDSEGRLQADPQRFPHGIRQLANYVHSKGLKLGIYADVGNKTCAGFPGSFGYYDIDAQTFADWGVDLLKFDGCYCDSLENLADGYKHMSLALNRTGRSIVYSCEWPLYMWPFQKPNYTEIRQYCNHWRNFADIDDSWKSIKSILDWTSFNQERIVDVAGPGGWNDPDMLVIGNFGLSWNQQVTQMALWAIMAAPLFMSNDLRHISPQAKDLLQDKDVIAINQDPLGKQGYQLRQGDNFEVWERPLSGLAWAVAMINRQEIGGPRSYTIAVASLGKGVACNPACFITQLLPVKRKLGFYEWTSRLRSHINPTGTVLLQLENTMQMSLKDLL | 17.6 % WT | 1.2 | 78.3 ± 5.2 % WT | 31696 ± 3036 nmol/mg/h | 38325 ± 2376 nmol/mg/h | 95.8 ± 3.7 % WT
3 | A309T (protein) MQLRNPELHLGCALALRFLALVSWDIPGARALDNGLARTPTMGWLHWERFMCNLDCQEEPDSCISEKLFMEMAELMVSEGWKDAGYEYLCIDDCWMAPQRDSEGRLQADPQRFPHGIRQLANYVHSKGLKLGIYADVGNKTCAGFPGSFGYYDIDAQTFADWGVDLLKFDGCYCDSLENLADGYKHMSLALNRTGRSIVYSCEWPLYMWPFQKPNYTEIRQYCNHWRNFADIDDSWKSIKSILDWTSFNQERIVDVAGPGGWNDPDMLVIGNFGLSWNQQVTQMALWAIMAAPLFMSNDLRHISPQAKTLLQDKDVIAINQDPLGKQGYQLRQGDNFEVWERPLSGLAWAVAMINRQEIGGPRSYTIAVASLGKGVACNPACFITQLLPVKRKLGFYEWTSRLRSHINPTGTVLLQLENTMQMSLKDLL | 18.6 % WT | 1.2 | 74.1 ± 4.6 % WT | 29214 ± 1907 nmol/mg/h | 36228 ± 1841 nmol/mg/h | 92.7 ± 4.8 % WT
4 | L310I (protein) MQLRNPELHLGCALALRFLALVSWDIPGARALDNGLARTPTMGWLHWERFMCNLDCQEEPDSCISEKLFMEMAELMVSEGWKDAGYEYLCIDDCWMAPQRDSEGRLQADPQRFPHGIRQLANYVHSKGLKLGIYADVGNKTCAGFPGSFGYYDIDAQTFADWGVDLLKFDGCYCDSLENLADGYKHMSLALNRTGRSIVYSCEWPLYMWPFQKPNYTEIRQYCNHWRNFADIDDSWKSIKSILDWTSFNQERIVDVAGPGGWNDPDMLVIGNFGLSWNQQVTQMALWAIMAAPLFMSNDLRHISPQAKAILQDKDVIAINQDPLGKQGYQLRQGDNFEVWERPLSGLAWAVAMINRQEIGGPRSYTIAVASLGKGVACNPACFITQLLPVKRKLGFYEWTSRLRSHINPTGTVLLQLENTMQMSLKDLL | 19.6 % WT | 1.3 | 72.8 ± 3.6 % WT | 31871 ± 2599 nmol/mg/h | 40310 ± 3345 nmol/mg/h | 92.4 ± 5.1 % WT
5 | L311I (protein) MQLRNPELHLGCALALRFLALVSWDIPGARALDNGLARTPTMGWLHWERFMCNLDCQEEPDSCISEKLFMEMAELMVSEGWKDAGYEYLCIDDCWMAPQRDSEGRLQADPQRFPHGIRQLANYVHSKGLKLGIYADVGNKTCAGFPGSFGYYDIDAQTFADWGVDLLKFDGCYCDSLENLADGYKHMSLALNRTGRSIVYSCEWPLYMWPFQKPNYTEIRQYCNHWRNFADIDDSWKSIKSILDWTSFNQERIVDVAGPGGWNDPDMLVIGNFGLSWNQQVTQMALWAIMAAPLFMSNDLRHISPQAKALIQDKDVIAINQDPLGKQGYQLRQGDNFEVWERPLSGLAWAVAMINRQEIGGPRSYTIAVASLGKGVACNPACFITQLLPVKRKLGFYEWTSRLRSHINPTGTVLLQLENTMQMSLKDLL | 23.2 % WT | 2.9 | 12.1 ± 0.8 % WT | 4020 ± 235 nmol/mg/h | 11558 ± 781 nmol/mg/h | 35.3 ± 3.1 % WT
6 | Q312E (protein) MQLRNPELHLGCALALRFLALVSWDIPGARALDNGLARTPTMGWLHWERFMCNLDCQEEPDSCISEKLFMEMAELMVSEGWKDAGYEYLCIDDCWMAPQRDSEGRLQADPQRFPHGIRQLANYVHSKGLKLGIYADVGNKTCAGFPGSFGYYDIDAQTFADWGVDLLKFDGCYCDSLENLADGYKHMSLALNRTGRSIVYSCEWPLYMWPFQKPNYTEIRQYCNHWRNFADIDDSWKSIKSILDWTSFNQERIVDVAGPGGWNDPDMLVIGNFGLSWNQQVTQMALWAIMAAPLFMSNDLRHISPQAKALLEDKDVIAINQDPLGKQGYQLRQGDNFEVWERPLSGLAWAVAMINRQEIGGPRSYTIAVASLGKGVACNPACFITQLLPVKRKLGFYEWTSRLRSHINPTGTVLLQLENTMQMSLKDLL | 15.1 % WT | 4.6 | 4.1 ± 0.2 % WT | 1365 ± 57 nmol/mg/h | 6331 ± 466 nmol/mg/h | 19.2 ± 1.7 % WT
7 | Q312K (protein) MQLRNPELHLGCALALRFLALVSWDIPGARALDNGLARTPTMGWLHWERFMCNLDCQEEPDSCISEKLFMEMAELMVSEGWKDAGYEYLCIDDCWMAPQRDSEGRLQADPQRFPHGIRQLANYVHSKGLKLGIYADVGNKTCAGFPGSFGYYDIDAQTFADWGVDLLKFDGCYCDSLENLADGYKHMSLALNRTGRSIVYSCEWPLYMWPFQKPNYTEIRQYCNHWRNFADIDDSWKSIKSILDWTSFNQERIVDVAGPGGWNDPDMLVIGNFGLSWNQQVTQMALWAIMAAPLFMSNDLRHISPQAKALLKDKDVIAINQDPLGKQGYQLRQGDNFEVWERPLSGLAWAVAMINRQEIGGPRSYTIAVASLGKGVACNPACFITQLLPVKRKLGFYEWTSRLRSHINPTGTVLLQLENTMQMSLKDLL | 15.5 % WT | 1.8 | 19.7 ± 1.4 % WT | 6733 ± 510 nmol/mg/h | 11934 ± 624 nmol/mg/h | 35.2 ± 1.8 % WT
